From patent US20060014212A1
Where no end group is shown, it is not given here.

Experiments:
[1] = molecular target: anti-A021 antibody (PSA PET); experiment: peptide competition assay in 6% BSA
[2] = molecular target: anti-A002 antibody (TGFbeta1 PET); experiment: peptide competition assay in 6% BSA
[3] = molecular target: anti-A014 antibody (Thyroglobulin PET); experiment: peptide competition assay in 6% BSA
[4] = molecular target: anti-A025 antibody (IL-1beta PET); experiment: peptide competition assay in 6% BSA
[5] = molecular target: anti-A043 antibody (CRP PET); experiment: peptide competition assay in 6% BSA
[6] = molecular target: anti-A044 antibody (Fibronectin PET); experiment: peptide competition assay in 6% BSA
[7] = molecular target: anti-A011 antibody (MEK1 PET); experiment: peptide competition assay in 6% BSA
[8] = molecular target: anti-A024 antibody (IL-1beta PET); experiment: peptide competition assay in 6% BSA
antibody C1 = experiment: peptide competition ELISA: soluble peptide against immobilized target peptide for antibody C1
[9] = molecular target: anti-A027 antibody (IL-1beta PET); experiment: peptide competition assay in 6% BSA
[10] = molecular target: anti-A034 antibody (C4 PET); experiment: peptide competition assay in 6% BSA
[11] = molecular target: anti-A015 antibody (Thyroglobulin PET); experiment: peptide competition assay in 6% BSA
[12] = molecular target: anti-A035 antibody (C4 PET); experiment: peptide competition assay in 6% BSA
[13] = molecular target: anti-A039 antibody (C9 PET); experiment: peptide competition assay in 6% BSA
[14] = molecular target: anti-A006 antibody (pERK1 PET); experiment: peptide competition assay in 6% BSA
[15] = molecular target: anti-A008 antibody (ERK2 PET); experiment: peptide competition assay in 6% BSA
[16] = molecular target: anti-A003 antibody (TGFbeta1 PET); experiment: peptide competition assay in 6% BSA
[17] = molecular target: anti-A031 antibody (C3 PET); experiment: peptide competition assay in 6% BSA
[18] = molecular target: anti-A037 antibody (C9 PET); experiment: peptide competition assay in 6% BSA
[19] = molecular target: anti-A026 antibody (IL-1beta PET); experiment: peptide competition assay in 6% BSA
[20] = molecular target: anti-A007 antibody (ERK2 PET); experiment: peptide competition assay in 6% BSA
[21] = molecular target: anti-A028 antibody (IL-1beta PET); experiment: peptide competition assay in 6% BSA
[22] = molecular target: anti-A045 antibody (Fibronectin PET); experiment: peptide competition assay in 6% BSA
[23] = molecular target: anti-A016 antibody (Thyroglobulin PET); experiment: peptide competition assay in 6% BSA
[24] = molecular target: anti-A009 antibody (pERK2 PET); experiment: peptide competition assay in 6% BSA
[25] = molecular target: anti-A004 antibody (ERK1 PET); experiment: peptide competition assay in 6% BSA
[26] = molecular target: anti-A046 antibody (Fibronectin PET); experiment: peptide competition assay in 6% BSA
[27] = molecular target: anti-A013 antibody (Thyroglobulin PET); experiment: peptide competition assay in 6% BSA
[28] = molecular target: anti-A047 antibody (Fibronectin PET); experiment: peptide competition assay in 6% BSA
[29] = molecular target: anti-A001 antibody (TGFbeta1 PET); experiment: peptide competition assay in 6% BSA
[30] = molecular target: anti-A005 antibody (ERK1 PET); experiment: peptide competition assay in 6% BSA
[31] = molecular target: anti-A010 antibody (MEK1 PET); experiment: peptide competition assay in 6% BSA
[32] = molecular target: anti-A020 antibody (Troponin I PET); experiment: peptide competition assay in 6% BSA
[33] = molecular target: anti-A017 antibody (Troponin I PET); experiment: peptide competition assay in 6% BSA
[34] = molecular target: anti-A023 antibody (PSA PET); experiment: peptide competition assay in 6% BSA
[35] = molecular target: anti-A049 antibody (FactorXII PET); experiment: peptide competition assay in 6% BSA
[36] = molecular target: anti-A012 antibody (Thyroglobulin PET); experiment: peptide competition assay in 6% BSA
[37] = molecular target: anti-A022 antibody (PSA PET); experiment: peptide competition assay in 6% BSA

B1: A021 peptide (PSA), Ac-… (peptide)
peptide: Ac-LSEPAELTDAVKC
Binder B1 has an IC50 [1] of 8 nM.

B2: A002 peptide (TGFbeta1), Ac-… (peptide)
peptide: Ac-PQALEPLPIVYYVGRC
B2 gave an IC50 [2] of 3 nM.

B3: A014 peptide (Thyroglobulin), …-NH2 (peptide)
peptide: CEIYDTIFAGLD-NH2
Binder B3 has an IC50 [3] of 5 nM.

B4: A025 peptide (IL-1beta), Ac-… (peptide)
peptide: Ac-SLVMSGPYELKC
B4 gave an IC50 [4] of 5 nM.

B5: A043 peptide (CRP), …-NH2 (peptide)
peptide: CYEVQGEVFTK-NH2
B5 was tested, and the IC50 [5] was 4 nM.

B6: A044 peptide (Fibronectin), …-NH2 (peptide)
peptide: CHEGGQSYK-NH2
B6 gave an IC50 [6] of 8 nM.

B7: A011 peptide (MEK1), …-NH2 (peptide)
peptide: CGTSSAETNLEALQK-NH2
B7 was tested, and the IC50 [7] was 23 nM.

B8: A024 peptide (IL-1beta), …-NH2 (peptide)
peptide: CNEDDLFFEADGPK-NH2
B8 gave an IC50 [8] of 0.5 nM.

B9: CRP-derived 8-mer PET YEVQGEVF (peptide)
peptide: YEVQGEVF
B9 gave an IC50 (antibody C1) of 1000 nM.

B10: A027 peptide (IL-1beta), …-NH2 (peptide)
peptide: CLEFESAQFPNWY-NH2
In the case of B10, the IC50 [9] is reported as 5 nM.

B11: A034 peptide (C4), …-NH2 (peptide)
peptide: CQTDQPIYNPGQR-NH2
Work on B11 yielded an IC50 [10] of 4 nM.

B12: A015 peptide (Thyroglobulin), …-NH2 (peptide)
peptide: CDFSTPLAHFDLR-NH2
B12 gave an IC50 [11] of 4 nM.

B13: A035 peptide (C4), …-NH2 (peptide)
peptide: CEANEDYEDYEYDE-NH2
Work on B13 yielded an IC50 [12] of 4 nM.

B14: A039 peptide (C9), Ac-… (peptide)
peptide: Ac-PWNVASLIYETKC
Work on B14 yielded an IC50 [13] of 0.4 nM.

B15: A006 peptide (ERK1), Ac-… (peptide)
peptide: Ac-IADPEHDHTGC
B15 showed an IC50 [14] of 6 nM.

B16: A008 peptide (ERK2), …-NH2 (peptide)
peptide: CDPSDEPIAEAPFK-NH2
B16 showed an IC50 [15] of 6 nM.

B17: A003 peptide (TGFbeta1), …-NH2 (peptide)
peptide: CYIWSLDTQYSK-NH2
Work on B17 yielded an IC50 [16] of 8 nM.

B18: A031 peptide (C3), …-NH2 (peptide)
peptide: CHYLDETEQWEK-NH2
Work on B18 yielded an IC50 [17] of 5 nM.

B19: A037 peptide (C9), …-NH2 (peptide)
peptide: CTEHYEEQIEAFK-NH2
Binder B19 has an IC50 [18] of 0.5 nM.

B20: A026 peptide (IL-1beta), Ac-… (peptide)
peptide: Ac-PTLQLESVDPKC
In the case of B20, the IC50 [19] is reported as 8 nM.

B21: A007 peptide (ERK2), Ac-… (peptide)
peptide: Ac-IEVEQALAHPYLEQC
Binder B21 has an IC50 [20] of 4 nM.

B22: A028 peptide (IL-1beta), …-NH2 (peptide)
peptide: CENMPVFLGGTK-NH2
B22 showed an IC50 [21] of 0.5 nM.

B23: A045 peptide (Fibronectin), …-NH2 (peptide)
peptide: CTFYQIGDSWEK-NH2
B23 was tested, and the IC50 [22] was 1 nM.

B24: A016 peptide (Thyroglobulin), …-NH2 (peptide)
peptide: CDEAGQELEGMR-NH2
B24 was tested, and the IC50 [23] was 4 nM.

B25: A009 peptide (ERK2), Ac-… (peptide)
peptide: Ac-VADPDHDHTGC
Work on B25 yielded an IC50 [24] of 31 nM.

B26: A004 peptide (ERK1), Ac-… (peptide)
peptide: Ac-ITVEEALAHPYLEQC
B26 gave an IC50 [25] of 25 nM.

B27: A046 peptide (Fibronectin), …-NH2 (peptide)
peptide: CTTQNYDADQK-NH2
B27 was tested, and the IC50 [26] was 20 nM.

B28: A013 peptide (Thyroglobulin), Ac-… (peptide)
peptide: Ac-ELAETGLELLC
Work on B28 yielded an IC50 [27] of 8 nM.

B29: A047 peptide (Fibronectin), Ac-… (peptide)
peptide: Ac-VDVIPVNLPGEHGQRC
Binder B29 has an IC50 [28] of 10 nM.

B30: A001 peptide (TGFbeta1), Ac-… (peptide)
peptide: Ac-ALYNQHNPGASAAPC
B30 was tested, and the IC50 [29] was 0.8 nM.

B31: A005 peptide (ERK1), …-NH2 (peptide)
peptide: CVAEEPFTFDMELDD-NH2
With B31 the IC50 [30] was 6 nM.

B32: A010 peptide (MEK1), Ac-… (peptide)
peptide: Ac-PTPIQLNPAPDGC
B32 showed an IC50 [31] of 36 nM.

B33: A020 peptide (Troponin I), Ac-… (peptide)
peptide: Ac-NIDALSGMEGRC
Work on B33 yielded an IC50 [32] of 4 nM.

B34: A017 peptide (Troponin I), Ac-… (peptide)
peptide: Ac-AYATEPHAKC
Work on B34 yielded an IC50 [33] of 10 nM.

B35: A023 peptide (PSA), …-NH2 (peptide)
peptide: CGSIEPEEFLTPK-NH2
B35 gave an IC50 [34] of 8 nM.

B36: A049 peptide (FactorXII), …-NH2 (peptide)
peptide: CVAGWGHQFEGAEEY-NH2
Binder B36 has an IC50 [35] of 15 nM.

B37: A012 peptide (Thyroglobulin), Ac-… (peptide)
peptide: Ac-GGQSAESEEEELC
In the case of B37, the IC50 [36] is reported as 10 nM.

B38: A022 peptide (PSA), …-NH2 (peptide)
peptide: CDLPTQEPALG-NH2
B38 was tested, and the IC50 [37] was 8 nM.
